Measurements: patent US20190248902A1 (published 2019)

Legend:
Soluble ASGR-1 = biological target: T1, Soluble ASGR-1 (human, UniProt P07306 62-291, biotinylated); assay: limited antigen binding assay; biotinylated soluble ASGR-1 coated at 2.5 ng/mL on LumAvidin beads, FACS
T1 construct: Soluble recombinant protein; also called recombinant, soluble ASGR-1 biotinylated protein
T1 sequence: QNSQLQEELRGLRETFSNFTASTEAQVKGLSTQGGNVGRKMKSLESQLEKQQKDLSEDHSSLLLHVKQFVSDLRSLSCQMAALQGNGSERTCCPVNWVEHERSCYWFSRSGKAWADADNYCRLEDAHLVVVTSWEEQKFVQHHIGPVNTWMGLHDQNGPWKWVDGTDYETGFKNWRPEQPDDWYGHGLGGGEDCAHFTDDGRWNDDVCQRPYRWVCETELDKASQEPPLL
Procedure: To assess antibody and antigen interaction strength (relative binding affinity), ASGR-1 specific, ligand competing antibody hybridoma supernatants were tested in a limiting antigen binding assay. Titrated amounts of recombinant, soluble ASGR-1 biotinylated protein was incubated with streptavidin-coated LumAvidin Beads® for 45 minutes in the dark at room temperature and washed twice. Beads were resuspeneded in FACS buffer containing Stabilguard® and 0.05% Sodium Azide. Antigen-bound beads were then incubated with normalized hybridoma supernatant sample or controls for 18 hours in the dark at room temperature, washed twice, incubated with Alexa Fluor® 488 IgG fragment-specific detection antibody for 15 minutes in the dark at room temperature, washed once and finally resuspended in FACS buffer. Samples were analyzed using an Intellicyt iQue™ Screener Platform. FACS buffer supplemented with 1 mM Calcium Chloride was used in all steps. […] In this assay method, the antibody binding signal correlates with antibody affinity. Antibody binding data for a representative antigen coating concentration that fell in the linear range of the instrument signal detection is shown in Table 7.2. The degree of antibody binding to the target (ASGR-1) correlates with the measured fluorescent intensity and thus allows a relative comparison of affinities across the panel.

Human ASGR-2 = biological target: T2, Human ASGR-2 (human, UniProt P07307 1-311); assay: FACS on transfected HEK 293 cells; binding = signal at least 2x irrelevant IgG
T2 construct: Expressed on HEK 293 cells; cDNA GenBank NM_080913.3; also called huASGR-2; hASGR-2
T2 sequence: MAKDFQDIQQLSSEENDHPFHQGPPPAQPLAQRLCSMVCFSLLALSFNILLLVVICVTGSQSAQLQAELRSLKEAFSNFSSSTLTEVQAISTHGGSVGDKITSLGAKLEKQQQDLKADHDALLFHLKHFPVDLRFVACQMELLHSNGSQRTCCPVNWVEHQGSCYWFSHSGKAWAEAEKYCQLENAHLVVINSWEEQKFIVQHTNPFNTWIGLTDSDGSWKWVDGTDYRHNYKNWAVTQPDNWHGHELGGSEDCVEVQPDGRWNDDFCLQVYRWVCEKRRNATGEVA
Procedure: (§1) Human ASGR-1-specific, ligand competing antibody samples were tested for binding to ASGR-1 from other species (cynomologus monkey ASGR-1, mouse ASGR-1, rat ASGR-1, dog ASGR-1, and pig ASGR-1) as well as to human ASGR-2 in FACS binding assays at normalized antibody concentrations. For cell-based assays, HEK 293 cells expressing the appropriate antigen of interest were mixed with antibody sample or controls, incubated for 1 hour at 4° C., and then washed twice. Cells with bound antibody were then incubated with Alexa Fluor® 647 IgG Fc fragment-specific detection antibody and 7-AAD viability stain for 15 minutes at 4° C., washed once and resuspended in FACS buffer. Samples were analyzed using a BD Accuri™ Flow Cytometer and an Intellicyt HyperCyt Autosampler. As a negative control, supernatants and controls were also screened against HEK 293 cells transfected with empty parental vector. […] For membrane-prep binding assays, ASGR-1 species specific membrane preps were used to coat LumAvidin® microspheres (beads) and tested for binding to selected hybridoma supernatants or controls. Briefly, ASGR-1 species specific membrane preps were incubated with streptavidin-coated LumAvidin® beads for 45 minutes in the dark at room temperature and washed twice. Beads were resuspeneded in FACS buffer containing Stabilguard®. Antigen-bound beads were then incubated with normalized antibody sample for 1 hour in the dark at room temperature, washed twice, incubated with Alexa Fluor® 488 IgG Fc fragment-specific detection antibody for 15 minutes in the dark at room temperature, washed once and finally resuspended in FACS buffer. Samples were analyzed using an Intellicyt iQue™ Screener Platform. FACS buffer supplemented with 1 mM Calcium Chloride was used in all steps. As a negative control, supernatants and controls were also screened against a non-ASGR-1 antigen membrane prep coated on the LumAvidin® beads.

Mouse ASGR-1 = biological target: T3, Mouse ASGR-1 (mouse, UniProt P34927 1-284); assay: FACS on transfected HEK 293 cells or membrane preps on beads; binding = signal at least 2x irrelevant IgG
T3 construct: Expressed on HEK 293 cells or as membrane prep on beads; cDNA GenBank BC022106.1; also called muASGR-1; mASGR-1
T3 sequence: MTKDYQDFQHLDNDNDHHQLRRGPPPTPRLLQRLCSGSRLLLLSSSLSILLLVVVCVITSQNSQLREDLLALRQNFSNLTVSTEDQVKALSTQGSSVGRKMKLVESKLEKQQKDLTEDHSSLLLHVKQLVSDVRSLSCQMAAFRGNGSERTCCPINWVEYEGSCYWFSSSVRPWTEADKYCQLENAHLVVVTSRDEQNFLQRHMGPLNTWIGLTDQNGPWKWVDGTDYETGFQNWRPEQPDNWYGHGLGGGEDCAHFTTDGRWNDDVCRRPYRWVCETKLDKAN
Procedure: as §1

B1: 4H6 (antibody, V domains shown)
VH: QVQLVQSGAEVKKPGASVKVSCKASGYTFTDYYLHWVRQAPGQGLEWMGWIHPNSGGTNYAQKFQGRVTMTRDTSISTAYMGLSSLRSDDTAVYYCARDGTSSFDYWGQGTLVTVSS
VL: DIQMTQSPSSVSASVGDRVTITCRASQGISRWLAWYQQKPGKAPKLLIYGASSLQSGVPSRFSGSGSGTDFTLTISSLQPEDFAIYYCQQANSFPFTFGPGTKVDIK
notes: Tested as hybridoma supernatant at normalized concentration
Soluble ASGR-1
  FACS Geomean: 2990 FACS Geomean
Human ASGR-2
  binding result: no binding

B2: 72G9 (antibody, V domains shown)
VH: EVQLVESGGGLVKPGGSLRLSCAASGFTFSSYSMNWVRQAPGKGLEWVSSISGSSSYIYYADSVKGRFTISRDNAKNSLYLQMNSLRAEDTAVYFCARGGSRGFDPWGQGTLVTVSS
VL: DIQMTQSPSSLSASVGDRVTITCRASQSITSYLNWYQQKPGKAPKLLIYTASSLQSGVPSRFSGSGSGTDFTLTISSLQPEDFATYYCQQSHSFPFTFGPGTKVDIK
notes: as for B1
Soluble ASGR-1
  FACS Geomean: 34000 FACS Geomean
Human ASGR-2
  binding result: no binding

B3: 184E7 (antibody, V domains shown)
VH: QVQLVQSGAEVKTPGASVKVSCRASGYTFTSYNMHWVRQVPGQGLEWMGWINPNNGGSNYTQKFQGRVTMTRDTSISTAYMELSRLRSDDTAVYYCARKFGDWGQGTLVTVSS
VL: DIQMTQSPSSRSASIGERVTITCRASQGISNYLAWIQQKPGTAPKSLIYAASSLQSGVSSRFSGSGFGTDFTITISSVQREDFATYYCQQYNGYPFTFGHGTKVDIK
notes: as for B1
Soluble ASGR-1
  FACS Geomean: 40200 FACS Geomean
Human ASGR-2
  binding result: no binding

B4: 75G3 (antibody, V domains shown)
VH: QVQLQQWGAGLLKPSETLSLTCAVYGGSLSGSYWSWIRQPPGKGLEWIGEINLSGSTNYNPSLKSRVTISVDTSKSQFSLTLRSVTAADTAVYYCARDYGGLDYWGQGTLVTVSS
VL: EIVLTQSPGTLSLSPGERATLSCRARQNVDSSYLAWYQQKPGQAPRLLIYGASSRATGIPDRFSGSGSGTDFTLTISRLEPEDFAVFYCQQYERSPWTFGQGTKVEIK
notes: as for B1
Soluble ASGR-1
  FACS Geomean: 35800 FACS Geomean
Mouse ASGR-1
  binding result: no binding
Human ASGR-2
  binding result: no binding

B5: 12D2 (antibody, V domains shown)
VH: EVQLVESGGGLVKPGGSLRLSCAASGFTFSSYSMNWVRQAPGKGLEWVSSISSSSSYIYYADSVKGRFTISRDNAKNSLYLQMNSLRAEDTAVYYCARLGDYWGQGTLVAVSS
VL: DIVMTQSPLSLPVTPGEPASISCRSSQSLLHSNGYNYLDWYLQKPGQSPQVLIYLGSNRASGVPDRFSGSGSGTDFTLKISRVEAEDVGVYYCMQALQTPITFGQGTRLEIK
notes: as for B1
Soluble ASGR-1
  FACS Geomean: 105 FACS Geomean
Human ASGR-2
  binding result: no binding

B6: 190F8 (antibody, V domains shown)
VH: QVQLVESGGGVVQPGRSLRLSCAASGFTFSTYGMHWVRQAPGKGLEWVAVIWYDGSNKNYADSVKGRFTISRDNSKNTLYLQMNSLRAEDTAVYYCARDQGVGYDGLDVWGQGTTVTVSS
VL: DIQMTQSPSSLSASVGDRVTITCRTSQGIGNYLAWFQQKPGKAPKSLLYKASSLQSGVPSKFSGSGSGTDFTLTISSLQPEDFATYYCQQYMTYPLTFGGGTKVEIK
notes: as for B1
Soluble ASGR-1
  FACS Geomean: 13900 FACS Geomean
Mouse ASGR-1
  binding result: no binding
Human ASGR-2
  binding result: no binding

B7: 194C1 (antibody, V domains shown)
VH: QVQLVESGGGVVQPGRSLRLSCAASGFTFSSYGMHWVRQAPGKGLEWVAVIWYDGSNEHYADSVKGRFTISRDNSKNTLYLQMNSLRAEDTAVYYCARNRGVGYYGLDVWGQGTTVTVSS
VL: DIQMTQSPSSLSASVGDRVTITCRASQGISNYLAWFQQKPGKAPKSLIYAASSLQSGVPSKFSGSGSGTDFTLTISSLQPEDFATYYCLHYLTYPLTFGGGTKVEIK
notes: as for B1
Soluble ASGR-1
  FACS Geomean: 16900 FACS Geomean
Mouse ASGR-1
  binding result: no binding
Human ASGR-2
  binding result: no binding

B8: 197G3 (antibody, V domains shown)
VH: QVQLVESGGGVVQPGRSLRLSCVASGFTFSSHGMHWVRQAPGKGLEWVAVIWYDGSNKNYADSVKGRFTISRDNSKNTLYLQMNSLRAEDTAVYYCARDPSVGYDGMDVWGQGTTVTVSS
VL: DIQMTQSPSSLSASVGDRVTITCRASQGIGNHLAWFQQKPGKAPKSLIYAASSLQSGVPSKFSGSRSGTDFSLTISSLQPEDFATYYCQQYSNYPVTFGPGTKVDIK
notes: as for B1
Soluble ASGR-1
  FACS Geomean: 17700 FACS Geomean
Mouse ASGR-1
  binding result: no binding
Human ASGR-2
  binding result: no binding

B9: 191G10 (antibody, V domains shown)
VH: QVQLVESGGGVVQPGRSLRLSCAASGFTFSSYGMHWVRQAPGKGLEWVAVIWYDGSNKNYADSVKGRFTISRDNSKNTLYLQMNSLRAEDTAVYYCARDQGVGYDGLDVWGQGTTVTVSS
VL: DIQMTQSPSSLSASVGDRVTITCRTSQGIGKYLAWFQQKPGKAPKSLLYKVSSLQSGVPSKFSGSGSGTDFTLTISSLQPEDFATYYCQQYMTYPLTFGGGTKVEIK
notes: as for B1
Soluble ASGR-1
  FACS Geomean: 24200 FACS Geomean
Mouse ASGR-1
  binding result: no binding
Human ASGR-2
  binding result: no binding

B10: 198G3 (antibody, V domains shown)
VH: QVQLVESGGGVVQPGRSLKLSCAASGFTFSTYGMHWVRQAPGKGLEWVAVIWYDGTNKNYADSVKGRFTISRDNSKNTLCLQMNSLRAEDTAVYYCARDQGVGYDGLDVWGQGTTVTVSS
VL: DIQMAQSPSSLSASVGDRVTITCRTSQGIGKYLAWFQQKPGKAPKSLLYKASSLQGGVPSKFSGSGSGTDFTLTISSLQPEDFATYYCQQYMTYPLTFGGGTKVEIK
notes: as for B1
Soluble ASGR-1
  FACS Geomean: 26000 FACS Geomean
Mouse ASGR-1
  binding result: no binding
Human ASGR-2
  binding result: no binding

B11: 191G1 (antibody, V domains shown)
VH: QVQLVESGGGVVQPGRSLRLSCAASGFTFSSYGMHWVRQAPGKGLEWVAVIWYDGSNEHYADSVKGRFTISRDNSKNTLYLQMNSLRAEDTAVYYCARDRGVGYYGLDVWGQGTTVTVSS
VL: DIQMTQSPSSLSASVGDRVTITCRASQGISNYLAWFQQKPGKAPKSLIYAASSLQSGVPSKFSGSGSGTDFTLTISSLQPEDFATYYCQHYLTYPLTFGGGTKVEIK
notes: as for B1
Soluble ASGR-1
  FACS Geomean: 9550 FACS Geomean
Mouse ASGR-1
  binding result: no binding
Human ASGR-2
  binding result: no binding

B12: 4B1 (antibody, V domains shown)
VH: QVQLQESGPGLVKPSETLSLTCSVSGDSISSYSWSWIRQPAGKGLEWIGRIYTSGSTNYIPSLKSRITMSVDTSKKQFSLKLSSVTAADTAVYYCARDLKSSGCLFFDYWGQGTLVTVSS
VL: DIQMTQSPSSLSASVGDRVTITCRASHTIRTYLNWYQQKPGKAPKLLIYAASSLQSGVPSRINGSGSGTDFTLTITNLQPEDFATYYCQQSYNISFTFGPGTKVDIK
notes: as for B1
Soluble ASGR-1
  FACS Geomean: 10100 FACS Geomean
Human ASGR-2
  binding result: no binding

B13: 6G7 (antibody, V domains shown)
VH: QVQLVESGGGVVQPGRSLRLSCAASGFTFSSYGMHWVRQTPGKGLEWVAIISYVGKNKYYADSVKGRFTISRDNSKNTLYLQMNSLRAEDTAVYYCARRGNSYGGYGMDVWGQGTTVTVSS
VL: DIQMTQSPSSRSASVGDRVTITCQASQDISNYLNWCQQKPGKALKLLIYDASTLETGVPSRFSGSGSGTDFTFTISSVQPEDIATYYCQQYDNVPITFGQGTRLEIK
notes: as for B1
Soluble ASGR-1
  FACS Geomean: 2290 FACS Geomean
Mouse ASGR-1
  binding result: no binding
